Test results: PMC4210194, “Cyanobacterial Light-Driven Proton Pump, Gloeobacter Rhodopsin: Complementarity between Rhodopsin-Based Energy Production and Photosynthesis” (PLoS ONE, 2014)

Assays:
Asp121 = Asp121 (UniProt position 121, AYRYVDWLLTV); experiment: UV-vis; conditions: 3-mix buffer (starting at pH ca. 12, adjusted downward with HCl); retinal-bound pigment, unphotolysed state; light or dark adaptation not stated
[1] = target: T1, Gloeobacter rhodopsin (GR, Gloeorhodopsin) (Gloeobacter violaceus, UniProt Q7NP59); experiment: UV/VIS absorption of purified pigment; format: binding; conditions: covalent (protonated Schiff base, Lys257); 50 mM Tris pH 7, 150 mM NaCl, 0.02% DDM
T1 construct: gene gll0198
T1 sequence (Q7NP59 entry or part of it): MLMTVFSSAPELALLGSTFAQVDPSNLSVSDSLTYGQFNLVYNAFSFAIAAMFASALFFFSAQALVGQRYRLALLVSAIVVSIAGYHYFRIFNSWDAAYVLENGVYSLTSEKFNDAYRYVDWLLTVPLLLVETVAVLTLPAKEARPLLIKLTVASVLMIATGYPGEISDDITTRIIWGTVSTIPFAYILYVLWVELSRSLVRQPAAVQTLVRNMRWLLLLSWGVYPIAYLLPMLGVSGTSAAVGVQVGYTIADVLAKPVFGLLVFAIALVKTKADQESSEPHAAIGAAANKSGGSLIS

| Compound | pKa (Asp121) | UV/VIS absorption of purified pigment [1] |
| --- | --- | --- |
| Gloeobacter rhodopsin (GR, Gloeorhodopsin) (Gloeobacter violaceus PCC 7421) | 5.9 |  |
| CC1=C(/C=C/C(C)=C/C=C/C(C)=C/C=O)C(C)(C)CCC1 [all-trans retinal] |  | expressed in Escherichia coli and bound all-trans retinal to form a pigment |
